# Measured values from publication PMC4234702 (Cellular and molecular life sciences : CMLS, 2014).
# Molecular target: the molecule itself
# Assay: crystal structure
protein,measurement,value
"cell-free expressed Δ7 DgkA (thermostabilized mutant of diacylglycerol kinase) (enzyme, Escherichia coli) ANNTTGFTRIIKAAGYSWKGLRAAWINEAAFRQEGVAVLLCVVIAAWLDVDAVTRVLLISSVMLVMIVELLNSAIEAVVDRIGSEYHELSGRAKDLGSAAVLIAIIDAVITWAILLWSHFG",stoichiometry N,3
